We go through 4 molecules from patent US20210008166A1 (SPECTRUM PHARMACEUTICALS, published 2021).

Experiment [1] deals with GLP-1R on CHO cells (CHO/GLP-1R). As to the kind of experiment: cell-based or functional assay.
In experiment [2] the target is T1, Fc fragment of eflapegrastim (human, UniProt P01861 107-325 = IgG part, aglycosylated (manufactured from recombinant E. coli cells)).
T1 construct: Unconjugated Fc carrier tested alongside eflapegrastim; also called aglycosylated human IgG4 Fc fragment; immunoglobulin Fc region (IgG4)
As to the kind of experiment: ELISA with GST-FcγRIIB, anti-GST detection. As to the method:
For C1q, FcγRIIB, FcγRIIIA, and FcRn binding assays, serial dilutions of the test materials were added to 96-well microplates coated with C1q, or GST fusion proteins of FcγRIIB or FcγRIIIA, or FcRn αβ2. After incubation and washing, HRP-conjugated anti-C1q antibody was added for C1q binding assay, and rabbit-anti-GST antibody and HRP-conjugated anti-rabbit IgG antibody were sequentially added for FcγRIIB, FcγRIIIA, and FcRn binding assays. The absorbance was measured at 450 nm as described above for FcγRI binding assay.
On the technique in general: ELISA stands for enzyme-linked immunosorbent assay.

For experiment [3], the target named is T2, Chinese hamster ovary (CHO) cell-derived soluble recombinant human G-CSF receptor (R&D Systems, 381-050/CF) (human, UniProt Q99062 25-627).
T2 construct: extracellular domain; Bought and amine-coupled to a CM5 chip; also called soluble human G-CSF receptor
T2 sequence (looked up): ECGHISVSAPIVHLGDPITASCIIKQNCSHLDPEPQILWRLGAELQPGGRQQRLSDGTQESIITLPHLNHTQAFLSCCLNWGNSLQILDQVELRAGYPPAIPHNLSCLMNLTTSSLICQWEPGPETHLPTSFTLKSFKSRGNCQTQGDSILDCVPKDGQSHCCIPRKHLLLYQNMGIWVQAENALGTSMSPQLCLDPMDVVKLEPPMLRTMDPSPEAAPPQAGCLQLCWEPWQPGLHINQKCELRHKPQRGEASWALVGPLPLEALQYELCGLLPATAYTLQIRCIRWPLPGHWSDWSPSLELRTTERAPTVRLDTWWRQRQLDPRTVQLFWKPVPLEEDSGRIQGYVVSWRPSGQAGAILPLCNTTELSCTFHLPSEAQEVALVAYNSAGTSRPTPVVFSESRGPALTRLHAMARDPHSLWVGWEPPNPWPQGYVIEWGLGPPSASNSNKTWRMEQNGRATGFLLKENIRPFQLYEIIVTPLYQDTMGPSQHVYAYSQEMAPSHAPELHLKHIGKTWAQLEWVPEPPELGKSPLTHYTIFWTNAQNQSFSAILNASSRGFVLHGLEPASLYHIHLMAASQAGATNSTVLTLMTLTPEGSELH
Nature of the experiment: SPR (BIAcore 3000), receptor amine-coupled to CM5 chip, analyte 6.25-100 nmol/L, 25 C, 1:1 Langmuir fit. (Surface plasmon resonance follows binding to a sensor surface in real time, without labels.)
From the text: Surface plasmon resonance technology and the BIAcore 3000 biosensor (GE healthcare) were employed to measure in vitro binding affinity to the G-CSF receptor. Amine-coupling chemistry was used to immobilize the G-CSF receptor on CM5 biosensor chip. […] The CM5 sensor chip surface was activated by injecting a 1:1 mixture of 0.1 mol/L N-hydroxysuccinimide (GE healthcare) and 0.1 mol/L 3-(N,N-dimethylamino)propyl-N-ethylcarbodiamide (GE Healthcare). […] The chip surface was then blocked with ethanolamine/HCl (GE Healthcare), pH 8.5, and washed with a regeneration solution (50 mmol/L NaCl; 5 mmol/L NaOH). […] Binding affinity was calculated using the 1:1 Langmuir fitting model for each test material.

T1 sequence (P01861 other isoform, or with tags, fused parts or gaps limits assumed): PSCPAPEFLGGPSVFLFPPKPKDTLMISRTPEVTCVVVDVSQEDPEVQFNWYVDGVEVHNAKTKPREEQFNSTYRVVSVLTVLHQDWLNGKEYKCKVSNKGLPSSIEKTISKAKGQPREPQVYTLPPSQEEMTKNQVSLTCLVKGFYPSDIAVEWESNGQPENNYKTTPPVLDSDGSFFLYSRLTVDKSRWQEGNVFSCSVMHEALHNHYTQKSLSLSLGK

Molecule “CA Exendin (lysine)-PEG-(N-terminus) Fc - Experimental group (Fc fusion)” came in with a potency relative to the isomer linked at another position of Fc in experiment [1] of 6 times.
In experiment [1], “CA Exendin (lysine)-PEG-(lysine) Fc (Fc fusion)” had a % vs. Experimental group of 16.1% and an EC50 (ng/ml), in vitro activity of 590 ng/mL.

B1: GST fusion protein of FcγRIIB (receptor, UniProt P31994 43-217, looked up)
chain: TPAAPPKAVLKLEPQWINVLQEDSVTLTCRGTHSPESDSIQWFHNGNLIPTHTQPSYRFKANNNDSGEYTCQTGQTSLSDPVHLTVLSEWLVLQTPHLEFQEGETIVLRCHSWKDKPLVKVTFFQNGKSKKFSRSDPNFSIPQANHSHSGDYHCTGNIGYTLYSSKPVTITVQAP
notes: not shown: GST
Regarding B1, in experiment [2], the binding result is “no binding”.

B2: Pegfilgrastim (Neulasta) (ligand, UniProt P09919-2 31-204, looked up)
chain: TPLGPASSLPQSFLLKCLEQVRKIQGDGAALQEKLCATYKLCHPEELVLLGHSLGIPWAPLSSCPSQALQLAGCLSQLHSGLFLYQGLLQALEGISPELGPTLDTLQLDVADFATTIWQQMEELGMAPALQPTQGAMPAFASAFQRRAGGVLVASHLQSFLEVSYRVLRHLAQP
modifications: 20 kDa polyethylene glycol on the N-terminal methionine residue
notes: Commercial product
By Kd is commonly meant the free concentration of one partner at which half of the binding sites on the other are occupied at equilibrium, for simple one-to-one binding. Take B2: the Kd in experiment [3] was 2.9 nM.
